Source: paper PMC8171356 (Nature structural & molecular biology, 2017)
Ends that are not written are not given here. * marks the point of attachment. βGlcNAc = CC(=O)N[C@@H]1[C@@H](O)[C@H](O)[C@@H](CO)O[C@H]1*

B1: OGA_(cryst) (D175N) (domain or fragment, human)
chain: FLCGVVEGFYGRPWVMEQRKELFRRLQKWELNTYLYAPKDDYKHRMFWREMYSVEEAEQLMTLISAAREYEIEFIYAISPGLDITFSNPKEVSTLKRKLDQVSQFGCRSFALLFDNIDHNMCAADKEVFSSFAHAQVSITNEIYQYLGEPETFLFCPTEYCGTFCYPNVSQSPYLRTVGEKLLPGIEVLWTGPKVVSKEIPVESIEEVSKIIKRAPVIWDNIHANDYDQKRLFLGPYKGRSTELIPRLKGVLTNPNCEFEANYVAIHTLATWYKSNMNGVRKDVVMTDSEDSTVSIQIKLENEGSDEDIETDVLYSPQMALKLALTEWLQEFGVPHQYSSRGGGGSGGGGSGGGGSVTLEDLQLLADLFYLPYEHGPKGAQMLREFQWLRANSSVVSVNCKGKDSEKIEEWRSRAAKFEEMCGLVMGMFTRLSNCANRTILYDMYSYVWDIKSIMSMVKSFVQWLGCRSHSSAQFLIGDQEPWAFRGGLAGEFQRLLPIDGANDLFFQ

Key:
[1] = in vivo; cited from earlier work
[2] = molecular target: the molecule itself; assay: crystal structure
[3] = molecular target: B1; assay: crystal structure
[4] = molecular target: T1, full-length human O-GlcNAcase (hOGA) (human, UniProt O60502 1-916); assay: glycopeptide competition assay
T1 sequence (looked up): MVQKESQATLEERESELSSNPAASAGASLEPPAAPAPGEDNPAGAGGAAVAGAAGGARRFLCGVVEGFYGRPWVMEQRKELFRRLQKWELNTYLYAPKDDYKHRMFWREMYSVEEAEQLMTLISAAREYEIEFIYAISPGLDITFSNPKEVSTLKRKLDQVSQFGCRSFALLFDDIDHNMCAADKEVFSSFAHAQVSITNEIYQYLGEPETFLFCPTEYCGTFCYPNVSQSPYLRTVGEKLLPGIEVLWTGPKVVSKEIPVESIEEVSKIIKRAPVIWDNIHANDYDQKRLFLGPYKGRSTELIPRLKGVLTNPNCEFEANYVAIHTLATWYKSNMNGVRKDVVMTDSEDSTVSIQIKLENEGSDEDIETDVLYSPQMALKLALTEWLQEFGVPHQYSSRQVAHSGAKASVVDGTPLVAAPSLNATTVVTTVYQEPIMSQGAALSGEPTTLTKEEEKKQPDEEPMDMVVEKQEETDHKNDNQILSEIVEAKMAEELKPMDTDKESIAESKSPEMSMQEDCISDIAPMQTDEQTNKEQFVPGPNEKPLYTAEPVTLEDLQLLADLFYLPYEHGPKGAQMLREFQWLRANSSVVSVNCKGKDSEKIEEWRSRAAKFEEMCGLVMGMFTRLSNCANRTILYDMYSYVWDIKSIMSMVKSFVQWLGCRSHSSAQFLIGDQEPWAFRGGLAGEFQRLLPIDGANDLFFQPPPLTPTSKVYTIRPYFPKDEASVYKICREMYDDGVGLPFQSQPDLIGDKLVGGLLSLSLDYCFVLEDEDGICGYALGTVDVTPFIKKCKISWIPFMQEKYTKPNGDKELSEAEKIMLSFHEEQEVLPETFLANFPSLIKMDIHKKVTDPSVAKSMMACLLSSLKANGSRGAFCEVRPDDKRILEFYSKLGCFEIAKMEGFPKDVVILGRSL

[5] = molecular target: the molecule itself; assay: AUC

CCN=C1N[C@@H]2[C@@H](O)[C@H](O)[C@@H](CO)O[C@@H]2S1 [thiamet-G]
blood–brain barrier crossing [1]: can cross the blood–brain barrier

B1
binding result [2]: binds

B2: O-GlcNAcylated p53 peptide Ac-QLWVDS(O-GlcNAc)TPPPG (peptide)
peptide: Ac-QLWVDS(βGlcNAc)TPPPG
binding result [3]: binds
binding result [4]: binds

B3: OGA_(cryst) (truncated hOGA, residues 60-704 with residues 401-552 replaced by a 15-residue glycine-serine linker) (domain or fragment, human)
chain: FLCGVVEGFYGRPWVMEQRKELFRRLQKWELNTYLYAPKDDYKHRMFWREMYSVEEAEQLMTLISAAREYEIEFIYAISPGLDITFSNPKEVSTLKRKLDQVSQFGCRSFALLFDDIDHNMCAADKEVFSSFAHAQVSITNEIYQYLGEPETFLFCPTEYCGTFCYPNVSQSPYLRTVGEKLLPGIEVLWTGPKVVSKEIPVESIEEVSKIIKRAPVIWDNIHANDYDQKRLFLGPYKGRSTELIPRLKGVLTNPNCEFEANYVAIHTLATWYKSNMNGVRKDVVMTDSEDSTVSIQIKLENEGSDEDIETDVLYSPQMALKLALTEWLQEFGVPHQYSSRGGGGSGGGGSGGGGSVTLEDLQLLADLFYLPYEHGPKGAQMLREFQWLRANSSVVSVNCKGKDSEKIEEWRSRAAKFEEMCGLVMGMFTRLSNCANRTILYDMYSYVWDIKSIMSMVKSFVQWLGCRSHSSAQFLIGDQEPWAFRGGLAGEFQRLLPIDGANDLFFQ
stoichiometry N [5]: 2
